Assay results: a protein production outcome set (Wang et al. 2014)

Assay: label from the status in PepcDB records
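Also: failed if final PepcDB status was selected cloned or expressed and not failed if soluble or beyond.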

Row | Sequence | protein production
1 | MTIHWCGTGLSAIPGLRRLIEAGHALTVWNRTVEKARAELGDLTDDIRAFDIDALGAVLAKGDVVVSMLPGDWHVPLAELAIAKGTHFVSSSYIAPEMRALDERAREAGVSLVNEIGLDPGIDHLMAHELVADYRASDAFDAQNHLSFISYCGGIPKHPNPFRYKFSWSPLGVLKALRSPSRSIRDYAPLDVARPWDAISSYTAPLPTPESFEVYPNRDSLPFMGQYHFKEHWPVKEFVRGTLRLNGWADAWGDVFREIETLSGPEGDARLKEMSDQFWAENAYDQGEPDRVVLCVGLKAEKDGREVWHKSYVMDAWGDARGTAMARLVSIPVSLAVEAVLNREIPAGVHAASSDPKLLARWMAEVATLAQHLQIVDHTA | failed
2 | MKLRSWEFYDRIARAYDSMYETPKWKLYHRLIGSFLEEYLKNPCRVLDLGGGTGKWSLFLQERGFEVVLVDPSKEMLEVAREKGVKNVVEAKAEDLPFPSGAFEAVLALGDVLSYVENKDKAFSEIRRVLVPDGLLIATVDNFYTFLQQMIEKDAWDQITRFLKTQTTSVGTTLFSFNSYAFKPEDLDSLEGFETVDIRGIGVMEYPDERISEREETIFRLEQELSRDRNIIWKADHIFFVLKKKRGA | not failed
3 | MQNDFDRVFVLTGGPGSGKTTLIAALRRAGFATSVVAGRGIVRDQSSIGGTALPWSDRTLFAELMLSWEMRSYQNAVEQKGPVFFDRGVPETLGYLRLSGLPVADHVSTAAKRFRYNPRVFIAPPWPDIFAQDEERKQTPDEAKCTYHALAEIYTELGYELVPLPLAPVETRLRFVLADAGLEHHHHHH | failed
4 | MFRSKSCREETRSSSITNKYHCFSHGEKSESEPTNQQPPVMMRSYSTSTYNAYQNPTIVRDDSNNKSKRSNKVKKKGFKGLCEAEIQRKKRVASYNVYGVEGRVKGSMKKSFKWFKETCSNAVYGLW | failed
5 | MSLSLLVIGSLAFDDIETPFGRSDNTLGGSSTYIALSASYFTDEPIRMVGVVGSDFGKEHFDLLHAKNIDTRGIQVIEDGKTFRWAGRYHYDMNTRDTLDTQLNVFAEFDPHVPQYYRDSKFVCLGNIDPELQLKVLDQIDDPKLVVCDTMNFWIEGKPEELKKVLARVDVFIVNDSEARLLSGDPNLVKTARIIREMGPKTLIIKKGEHGALLFTDNGIFAAPAFPLESIYDPTGAGDTFAGGFIGHLARCGNTSEAEMRKAVLYGSAMASFCVEQFGPYRYNDLDLLEVDDRYQSFLELSRIEEGHHHHHH | not failed
6 | MYDHILLASDGTEASTNAESHAISLAAEHGAALHVLYVVDEDVYTAYSGDEYVDESEGPEHGLEETGQETLARIQADAEASGVDATTTLKHGRPAESVIETADEADVDLLVLGTKRRPAEYRSLLGSITDKVLRLSERPAVVVKTEVEE | failed
7 | KIIHIDCDCFYAALEMRDDPSLRGKALAVGGSPDKRGVVATCSYEARAYGVRSAMAMRTALKLCPDLLVVRPRFDVYRAVSKQIHAIFRDYTDLIEPLSLDEAYLDVSASPHFAGSATRIAQDIRRRVAEELHITVSAGVAPNKFLAKIASDWRKPDGLFVITPEQVDGFVAELPVAKLHGVGKVTAERLARMGIRTCADLRQGSKLSLVREFGSFGERLWGLAHGIDERPVEVDSRRQSVSVECTFDRDLPDLAACLEELPTLLEELDGRLQRLDGSYRPDKPFVKLKFHDFTQTTVEQSGAGRDLESYRQLLGQAFARGNRPVRLIGVGVRLLDLQGAHEQLR | failed
8 | MNRLCVLGLLIGLSGSPALAAGQGESGNPPATDKERFIASLMARMSNAEKIGQLRLVSVGADHPKEALMADIRAGKVGAIFNTVTRPDIRAMQDQVRHSRLKIPLFHAYDVAHGHRTIFPISLGLAASWDPEVVARSARISALEASADGLDMSFSPMVDITRDARWGRVSEGFGEDTYLTSLLSGVMVRAYQGSNLAAPDSIMAAVKHFALYGAAEGGRDYNTVDMSLPRMFQDYLPPYKAAVDAGAGAVMVSLNTINGVPATANRWLLTDLLRQQWGFKGLTISDHGAVKELIKHGLAGNERDATRLAIQAGVDMNMNDDLYSTWLPKLLAAGEIDQADIDRACRDVLAAKYDLGLFADPYRRLGK | failed
9 | MGLALCGAAAQAQEKPNFLIIQCDHLTQRVVGAYGQTQGCTLPIDEVASRGVIFSNAYVGCPLSQPSRAALWSGMMPHQTNVRSNSSEPVNTRLPENVPTLGSLFSESGYEAVHFGKTHDMGSLRGFKHKEPVAKPFTDPEFPVNNDSFLDVGTCEDAVAYLSNPPKEPFICIADFQNPHNICGFIGENAGVHTDRPISGPLPELPDNFDVEDWSNIPTPVQYICCSHRRMTQAAHWNEENYRHYIAAFQHYTKMVSKQVDSVLKALYSTPAGRNTIVVIMADHGDGMASHRMVTKHISFYDEMTNVPFIFAGPGIKQQKKPVDHLLTQPTLDLLPTLCDLAGIAVPAEKAGISLAPTLRGEKQKKSHPYVVSEWHSEYEYVTTPGRMVRGPRYKYTHYLEGNGEELYDMKKDPGERKNLAKDPKYSKILAEHRALLDDYITRSKDDYRSLKVDADPRCRNHTPGYPSHEGPGAREILKRK | not failed
10 | MDFVPKILGNVVLLLSAGLNWTAMRVFAGRRPHVPGLLAGAGIWLILCVVPAFYQSMPVRVSVYSLLAAAYGVLTLLEFWRSRQQLEVAYMPAVVLTLLHTMYYIVRAVVDQGVAMDQALKGYGAGVPLFSFMLFESMLYVIGIAYVTLCMVKERVELRFKAAAFCDALTGIGNRRAFMVNGERMLIECQRRCSPMALLLCDLDHFKRLDDAYGHQTGDQVLVAFSQVLAETLGTKDVYARIGGEEFACLLAATDEQAAVTVAERVRQAFARLPLLEPGLLSVSIGVVSSETRGYDLPRLLSLADEALYDAKHQGRNRVHTVSRSALELQPD | failed
11 | MPHPAERSRHGRGWFEKLAEAASNLTSSPVFYCFCLLLVFAFIVAHAVGLELTWQLLIGDIMTAVNLLLLALLKNSERRAEHAIQHKLDSIAAALLEQREGHSRQAHEELRKAIGIEDEF | failed
12 | ALKQKIIGNGEKRVVTYAPTWREDDFISVGHYHFRWHFSLKKMMGLLPEDVMLLIRPHYLVTDRIDIKGFEDRVVIDSTTDMNEIYLITDLMVTDYSSVMFDFAILKRPMLFFAYDLEYYRDDLRGFYFDYYTELPGSIVTDETHLLAEIDQLLQNNFAELDPERFNKFAKRFVSWERGTAAQQVIEKINYRRDEK | failed
13 | MIDIHSHIVFDVDDGPKTLEESLSLIEESYRQGVRIIVSTSHRRKGMFETPEDIIFKNFSIVKHEAEKRFEHLQILYGGELYYTSDMLEKLKLKQIPTLNNTKFALIEFSMQTSWKDIHTALSNVLMLGITPVVAHIERYNALENQKERVKEIINMGCYTQINSSHILKQKLFNDKHKRFKKRARYFLEENLVHFVASDMHNLDVRPPFLAEAYKIICRDFGKERANQLFIENAQSILKNHYI | failed
14 | MIIMLSEYLEEFKEYLERFKNIDINFSDVLKMSKKFIIWRLKQIFGDSSTIFTNISSEITIFDKIFQMIDYDIDGEVEKRLPKDESRFMIGVRREKEIEIKKEIITNLLDFLLIILLSHTPYFNAFVRKYAEIKKIKVIKKLPNKISVWEFIKIASRSRINDLHLERLDLENGFVDITKIKEIFAKEIIRVELMKLGENIKKRKLPDDSVVKELLNEISDYLKDKVKYEQISGIKALNYKGNIPLEWHPPCIRGILNDILSGGSPSHYARRSFVVYWFCAKFNPNLRPLDKNGNLVNVSATDIASEEEIERFIDELIEMLFKNVEDFDEKKTRYYIMHNIGYKVGHGRLTHCEYCKNWQDDGGKGLSYYCKPDELCKKKFIIHPLDYLCYNINKHLKKERFKKIKKEDKNGDNKLEHHHHHH | not failed
15 | MKRGEELPPLEIEVTRTLIVAGAIASRDYQDVHHDAESARRRGSPDIFMNILTTNGLVGRYITDHFGPGAVLRKVAIRLGAPNYPGDTMVLTGTVVEVEGDTATVKVIGANGIGTHVRGTVTVTVPPGSASLEHHHHHH | failed
16 | MAEDYKLIDNEEKHRYEFQIDDKIAKIDYIKSNNGEIYLVHTEVPASLGGRGVGSQLAEKTLADIERQGLRLVPLCPFVAGYIHKHPEWKRIVMRGIHIK | failed
17 | MFSVNNTHSSVSCSPSINSNSTSNEHYLRILTEWEKNSSPGEERGIAFNRLSQCFQNQEAVLNLSDLNLTSLPELPKHISALIVENNKLTSLPKLPAFLKELNADNNRLSVIPELPESLTTLSVRSNQLENLPVLPNHLTSLFVENNRLYNLPALPEKLKFLHVYYNRLTTLPDLPDKLEILCAQRNNLVTFPQFSDRNNIRQKEYYFHFNQITTLPESFSQLDSSYRINISGNPLSTRVLQSLQRLTSSPDYHGPQIYFSMSDGQQNTLHRPLADAVTAWFPENKQSDVSQIWHAFEHEEHANTFSAFLDRLSDTVSARNTSGFREQVAAWLEKLSASAELRQQSFAVAADATESCEDRVALTWNNLRKTLLVHQASEGLFDNDTGALLSLGREMFRLEILEDIARDKVRTLHFVDEIEVYLAFQTMLAEKLQLSTAVKEMRFYGVSGVTANDLRTAEAMVRSREENEFTDWFSLWGPWHAVLKRTEADRWAQAEEQKYEMLENEYSQRVADRLKASGLSGDADAEREAGAQVMRETEQQIYRQLTDEVLALRLSENGSRLHHS | not failed
18 | MRSLWVFYRTAPDTIVFFDDSPTARFSTVVAFYNHRTGGPMSFAQRDPIGELSLLTHIFIKYREPYVTDGQCRVIVQSKRPIMSSIEQYSQKPFYAHKGTDESSQDTETTEDIVVKEGKHFWIEFDPPEEPFTDTSRRVLRLVRNVEQHRQPGYCTFSKSLFVERNGNDIFKPYRLYPTHNFEDKYFSSAEVKESASLYDLSSLKKNEIRPTLERYEEALKAEVLTPLRNALIPCMVEVYRREIGFESEPDKSLRNASYSSVLSWGSTLRFTLRLWDRIVSGQPLAQVKSEDWFEGTFEKVPSAVSQGARSAIRYYVSDKKLSRDYVLAQALPVYFKWAACREAIQSKLHEQKTDFFAVDTELDKTHVLSGDNVPAKIKKLLEEAAARRKDALSENTIQAYQHAIDHFKSFCERHGPKALPASPETLIAYFEHLAQNGYAESTIRKRRSAIRFLHERSMNESPTTSESVRRYFDDLRKTIPESRGHGQKDPILFHHLHQMSFDEEELSDLRDRAILYIGVATGLRDSGLIGLEMRDIFEKEGGVVYRIRDPKGEGDPGPERVSVPHEVPALTPSPNEALTAWIEAAGIESGAVFRSVDQYGNVGGDDGLSSGSISKDIVKPWMKSIGEDPSEYSCHSLRAGFVTQAILDGITEPRIAAQSRHKSIEALREYERPTNDMKNHMLKEMG | failed
19 | MYRAAIPNLFTLGNLYSGFLSIGYASLGYYKSAAILVLIGMMLDSLDGRVARLLRVDSQMGKELDSLADVVTFGAAPAVLMYYTSFSNYGIIGLYIAGLFPLFGAYRLARFNVTPSSTSMKYFTGVPITAAGGLVAFLTLFSHTIPKIVLITVFVTFAFLMVSRIRIPSLKDVPIPRYSIIITLFLVGIIITMYQTGFGNFSVFLFIAIPLYILYMLSQFIRQRPSKKANKEK | failed
20 | FKAVFISDTHLGTKDSKASLLLEFIKEIETKELYLVGDIIDGWSLKRKWIWLQPHSDVIQKILKAARKGVRVTYILGNHDEFIRPFLPLALGDHIRVVDEATYKAKNKKRYKIVHGDLYDSITMTKKWLAILGDNGYQFLLRLNDPINTLRQRLGFRRYWSFSQFIKDHVKQAVAYISDFEKILVAHAREEKFDGIICGHIHKAEIRDIEGITYMNCGDWVESCTALVETLEGEFKIIRW | failed
21 | MYRHDVSNEEKDIAVSVIALTAAFAIANRFRSPYGPFFILAVSFLVAVTAFLMHELAHRYVARSYGGIAYFKMWPLGLLLALITSLLGFIFAAPGAVNIGGIYRRDQIGKTSLAGPAMNIFLGILFYAISLFTLIPVAIAIFRYVAEMNFWFGFFNLLPIPPLDGYKVFSWDLYVYIVSVVIALVFVVLFVF | failed
22 | MKSIYYLSADDLFQMNTFLIQTYSPAEQIGIKDRNALEMASNQPAQFVFDVDLYPTIEEKAAILMINIATKHCFYNANKRTAVMATDLFLQLNGYDFQLDTQEGVDLLVFIATYRSDFDQLKNDVSKVIRAKLNHTSSHLEHHHHHH | not failed
